Test results published in article doi:10.1101/2025.06.01.657267, “IFITM1 and IFITM3 cooperate to restrict virus entry in endolysosomes” (bioRxiv, 2025).

Biological target: T1, FLAG-IFITM3 G95L (human, UniProt Q01628 1-133, G95L)
T1 construct: Interferon-induced transmembrane protein 3 (IFITM3), human, with G95L in the GxxxG motif of the CD225 domain; also called pQCXIP-FLAG-IFITM3 G95L; source: HEK293T, stably expressing pQCXIP-FLAG-IFITM3 G95L, in lysate; HEK293T, transiently transfected, in fixed cells
Experiment: affinity purification with mass spectrometry; anti-FLAG (M2) immunoprecipitation from whole cell lysates (1% Triton X-100, 150 mM NaCl) of HEK293T stably expressing FLAG-IFITM3 WT, G95L or Empty Vector; TMT labelling, duplicate MS runs
Conditions: partners not purified

T1 sequence (Q01628 whole entry G95L, the tested form may be a part): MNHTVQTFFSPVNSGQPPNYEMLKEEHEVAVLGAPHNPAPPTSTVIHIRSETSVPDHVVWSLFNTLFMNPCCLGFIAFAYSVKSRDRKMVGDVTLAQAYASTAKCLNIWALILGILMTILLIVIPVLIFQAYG

B1: endogenous IFITM1 (natural protein, UniProt P13164 1-125, looked up)
chain: MHKEEHEVAVLGPPPSTILPRSTVINIHSETSVPDHVVWSLFNTLFLNWCCLGFIAFAYSVKSRDRKMVGDVTGAQAYASTAKCLNIWALILGILMTIGFILLLVFGSVTVYHIMLQIIQEKRGY
notes: Interferon-induced transmembrane protein 1 (IFITM1), human, endogenous
- fold more IFITM1 pulled down by IFITM3 WT than by IFITM3 G95L: ~9 fold
